Here are results for one molecule from patent US20190015484A1, “NICOTINE-DEGRADING ENZYMES FOR TREATING NICOTINE ADDICTION AND NICOTINE POISONING” (priority 2015, published 2019).

The nature of data set [1]: Temperature curve of NicA2. In kind it is biochemical. The settings on record: HEPES buffer, 20-95° C. On the procedure: 100 μL of each solution was mixed, incubated, quenched and then analyzed as detailed, vide supra.
The effect of higher temperatures on the enzyme's stability was also examined.

Data set [2] is described as follows: NicA2 PK study in mice (ELISA of serum). In kind it is in vivo, mouse. On the procedure: Purified His-tagged NicA2 was conjugated to 20 kDa PEG and subsequently purified by HPLC. […] The fusion protein was expressed in E. coli and purified as described above for NicA2.
His-tagged NicA2, NicA2-PEG or NicA2-ABD was dosed intravenously in mice at 5 mg/kg. Blood sampling was done at pre-dose and then over a 5 min-72 h period (three animals per time-point) and processed to serum.
Assay of serum samples was done taking advantage of the C-terminal His-tag on the test articles. MaxiSorp ELISA plates (Nunc) were coated overnight with anti-His×6 antibody (purchased from R&D Systems). Plates were blocked with 4% dry milk (purchased from Bio-Rad) in PBS. Dilutions of standard and serum samples in 2% milk in PBS+0.1% Tween-20 were added to the plates, and incubated for 1 hour at room temperature. After washing away unbound substances (all wash steps performed in PBS+0.1% Tween-20), rabbit anti-NicA2 polyclonal primary detection antibody (purchased from Noble Life Sciences, Inc.) was added to the wells for a 1 hour incubation. […] Plates were washed, and the remaining binding complex was detected with TMB substrate (3,3′,5,5′-tetramethylbenzidine; KPL). Once stopped with acid, plates were read on a spectrophotometer at 450 nm and data analyzed in SoftMax® Pro, version 6.5.1 (purchased from Molecular Devices). […]
On the technique in general: An ELISA detects its analyte on a solid surface through an enzyme-linked reagent.

Data set [3] is described as follows: In vitro NicA2 activity in rat serum at physiologically relevant nicotine levels. Format: biochemical. As to conditions: for % Reduction in nicotine levels in vitro: rat serum, 37° C. The method, then: NicA2 was diluted in rat serum (controls: serum without NicA2) to give a final concentration of 400 nM, 200 nM, and 20 nM. Nicotine was diluted in 50 mM HEPES pH 7.5 to give final amounts of 640, […], 80, 40, 20, 10, 5 and 2.5 ng (spanning a nicotine concentration range of 3.2 μg/ml to 12.5 ng/ml). The diluted NicA2 in serum and diluted nicotine were mixed 1:1 after pre-equilibration at 37° C. and 5 min (in 200 μl total). After 4 minutes or 20 minutes, reactions were diluted and quenched by addition of 800 μl H2O+500 μl 2M NaOH/0.2M NH4OH. At the highest NicA2 concentration (400 nM) initial plasma nicotine levels of 25 and 50 ng/ml dropped to <2 ng/ml at 4 min. (Table A).

A short description of data set [4]: In vivo testing of NicA2: blood and brain nicotine levels in rats. Set-up: species or system rat. The method, then:
Rats were used for in vivo testing because their nicotine metabolism is generally similar to that of humans with regard to rate and range of metabolites. 30 female, 250 g Sprague Dawley rats were pretreated with varying amounts of NicA2 intravenously as noted in Table B below.
After administration of NicA2 (generally over 5 minutes), nicotine (0.03 mg/kg) was administered intravenously. At 5 minutes, the rats were sacrificed under isoflurane anesthesia and 1 ml blood samples were collected with 0.32 ml heparin. 0.5 ml of each blood sample was added to a tube containing ice cold 2 ml methanol (to quench NicA2 activity) and the contents were rapidly mixed. Another 0.5 ml of each blood sample was added to a tube containing ice cold 2 ml of methanol (to quench NicA2 activity) and deuterium labeled D4-nicotine, and the contents were rapidly mixed. The brains were collected and frozen at −20° C. Measurements were made in accordance with Keyler et al., International Pharmacology 2008, 8, […], and, Hieda et al., Psychopharmacology, 1999, 143(2), 150-157.

B1: NicA2: flavin-containing nicotine-degrading enzyme of Pseudomonas putida S16, amino acid sequence SEQ ID NO:1 (protein)
chain: MSDKTKTNEGFSRRSFIGSAAVVTAGVAGLGAIDAASATQKTNRASTVKGGFDYDVVVVGGGFAGATAARECGLQGYRTLLLEARSRLGGRTFTSRFAGQEIEFGGAWVHWLQPHVWAEMQRYGLGVVEDPLTNLDKTLIMYNDGSVESISPDEFGKNIRIAFEKLCHDAWEVFPRPHEPMFTERARELDKSSVLDRIKTLGLSRLQQAQINSYMALYAGETTDKFGLPGVLKLFACGGWNYDAFMDTETHYRIQGGTIGLINAMLTDSGAEVRMSVPVTAVEQVNGGVKIKTDDDEIITAGVVVMTVPLNTYKHIGFTPALSKGKQRFIKEGQLSKGAKLYVHVKQNLGRVFAFADEQQPLNWVQTHDYSDELGTILSITIARKETIDVNDRDAVTREVQKMFPGVEVLGTAAYDWTADPFSLGAWAAYGVGQLSRLKDLQAAEGRILFAGAETSNGWHANIDGAVESGLRAGREVKQLLS
modifications: His tag
Consider B1, for which the optimum temperature in data set [1] is 70 °C. In addition, the half-life in vivo in data set [2] (in vivo in mammals, due to renal clearance) lay within 3 to 4 h. The “Half-life” value in data set [2] (mice, 5 mg/kg intravenously, serum) amounted to 3.7 h. The “% Reduction in nicotine levels in vitro” value in data set [3] (20 nM NicA2, nicotine 25 ng/ml) was determined as 17%; in data set [3] (20 nM NicA2, nicotine 50 ng/ml) it was 8%; in data set [3] (20 nM NicA2, nicotine 100 ng/ml), 4%; in data set [3] (200 nM NicA2, nicotine 25 ng/ml), 100%; in data set [3] (200 nM NicA2, nicotine 50 ng/ml), 100%; in data set [3] (200 nM NicA2, nicotine 100 ng/ml) it was 72%. For the same molecule, the “% Reduction in nicotine levels in vitro” value in data set [3] (400 nM NicA2, nicotine 25 ng/ml) is 100%; in data set [3] (400 nM NicA2, nicotine 50 ng/ml), 100%; in data set [3] (400 nM NicA2, nicotine 100 ng/ml), 94%. In data set [3] (400 nM NicA2, initial nicotine 25 and 50 ng/ml, at 4 min), this molecule yielded a nicotine level remaining of less than 2 ng/mL. Moreover, the brain nicotine levels in data set [4] (4 out of the 5 animals, 5 min after 0.03 mg/kg i.v. nicotine) is less than 2 ng/mL. Further, in data set [4] (rats, 5 minutes after 0.03 mg/kg i.v. nicotine, n=5), the “blood and brain levels of nicotine” value is recorded as “below the limit of quantitation”. In addition, the “reduction in nicotine blood levels” value in data set [4] (rats, highest NicA2 dose (9.72 mg/kg i.v.), 5 min after 0.03 mg/kg i.v. nicotine, compared to controls) is greater than 95%.
